Data set [1] deals with T1, FENMIT (human, UniProt P39748-2 1-316). In words: EMSA; 1-50 nM FENMIT; 25 mM Tris pH 8.0, 1 mM DTT, 0.1 mg/ml BSA, 6% glycerol; 0.2 nM 32P substrate; 1 h on ice; 10% native PAGE in tris-borate. As to conditions: protein: recombinant; tags: His; label: 5'-32P; single strand.
In data set [2] the target is T1, FENMIT. In words: EMSA; 25 mM Tris pH 8.0, 1 mM DTT, 0.1 mg/ml BSA, 6% glycerol; 0.2 nM 32P substrate; 1 h on ice; 10% native PAGE in tris-borate. The conditions noted are these: protein: recombinant, tags: His.
Data set [3] deals with T1, FENMIT. In words: EMSA; 1-50 nM FENMIT; equal to short 3' flap; 25 mM Tris pH 8.0, 1 mM DTT, 0.1 mg/ml BSA, 6% glycerol; 0.2 nM 32P substrate; 1 h on ice; 10% native PAGE in tris-borate. The conditions noted are these: protein: recombinant; tags: His; label: 5'-32P on RNA44; 5' RNA flap with 20 nt 3' DNA flap.
The target in data set [4] is T1, FENMIT. In words: competition; 25 nM FENMIT; cold RNA44 0-5 nM; 25 mM Tris pH 8.0, 1 mM DTT, 0.1 mg/ml BSA, 6% glycerol; 0.2 nM 32P substrate; 1 h on ice; 10% native PAGE in tris-borate. As to conditions: protein: recombinant; tags: His; label: 5'-32P on RNA44; equilibrating full 5' RNA flap, 1 nt 3' DNA flap.
Another data set concerns the target FEN1 D181A (human, UniProt P39748 1-380, D181A). Put plainly: EMSA; 25 mM Tris pH 8.0, 1 mM DTT, 0.1 mg/ml BSA, 6% glycerol; 0.2 nM 32P substrate; 1 h on ice; 10% native PAGE in tris-borate. As to conditions: protein: recombinant; tags: His; label: 5'-32P on 19DNA; equilibrating double flap: 19 nt 5' DNA flap, 1 nt 3' flap.
Another data set addresses FEN1 (FEN1-1.His) (human, UniProt P39748 1-380). The description is as above. The conditions noted are these: protein: recombinant; tags: His; label: 5'-32P on 19DNA; equilibrating double flap: 19 nt 5' DNA flap, 1 nt 3' flap.

T1 sequence (P39748 65-380): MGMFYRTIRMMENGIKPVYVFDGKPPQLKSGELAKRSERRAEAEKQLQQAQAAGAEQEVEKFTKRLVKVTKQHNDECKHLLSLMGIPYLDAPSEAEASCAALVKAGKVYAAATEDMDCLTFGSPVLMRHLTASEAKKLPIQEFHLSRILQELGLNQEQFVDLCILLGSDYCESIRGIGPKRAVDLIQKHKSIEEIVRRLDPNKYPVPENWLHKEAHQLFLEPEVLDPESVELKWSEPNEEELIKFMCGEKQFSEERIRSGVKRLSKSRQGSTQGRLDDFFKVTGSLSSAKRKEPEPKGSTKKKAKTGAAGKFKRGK
Chain of FEN1 D181A (P39748 whole entry D181A): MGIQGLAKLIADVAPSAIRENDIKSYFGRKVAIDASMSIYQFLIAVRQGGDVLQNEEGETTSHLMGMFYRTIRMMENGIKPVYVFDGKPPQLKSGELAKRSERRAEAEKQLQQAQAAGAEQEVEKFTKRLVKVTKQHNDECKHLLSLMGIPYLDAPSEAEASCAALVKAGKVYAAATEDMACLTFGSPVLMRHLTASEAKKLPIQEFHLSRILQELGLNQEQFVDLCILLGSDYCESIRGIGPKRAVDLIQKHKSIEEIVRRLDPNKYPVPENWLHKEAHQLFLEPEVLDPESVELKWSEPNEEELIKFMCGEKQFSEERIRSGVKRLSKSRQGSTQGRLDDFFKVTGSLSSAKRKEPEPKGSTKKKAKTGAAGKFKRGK
Chain of FEN1 (FEN1-1.His) (P39748 whole entry): as the sequence (P39748 whole entry D181A) above, with A181D counted along it

Regarding UCAACGUGGGCAAAGAAUGUCCUACGUCCGAUACGGAUAAUCGC (ssRNA) [RNA44 ssRNA], the binding signal with FENMIT [1] was 3 fold lower affinity than RNA flap substrates.

B1: T6:D1:RNA44* R-loop (mixed)
DNA 1: CTGCGTCGGCTTAAGATGGTGCGATTATCCGTATCGGACGTAGGACATTCTTTGCCCACGTTGATGGGTAGATAGCCTAACCGG
DNA 2: CCGGTTAGGCTATCTACCCATAAGTTTATTCCCTGCTCTTAGCAGATGGAGTCTGTGAACTGCAATCAATACCATCTTAAGCCGACGCAG
RNA: UCAACGUGGGCAAAGAAUGUCCUACGUCCGAUACGGAUAAUCGC
As to B1, in the data set with FENMIT [2] (label: 5'-32P on RNA44, R-loop without RNA flap), the binding result is “binds”.

B2: U3:T2:RNA44* 5' RNA flap with 20 nt 3' flap (mixed)
DNA 1: GCGATTATCCGTATCGGACGTAGGAAGCCTGCCATTTGATGGTC
DNA 2: GACCATCAAATGGCAGGCTGAACGAACAAAGCGAAAGCG
RNA: UCAACGUGGGCAAAGAAUGUCCUACGUCCGAUACGGAUAAUCGC
Regarding B2, in the data set with FENMIT [3], the binding result is “binds”.

B3: T2:U2:RNA44* 5' RNA flap (mixed)
DNA 1: GCGATTATCCGTATCGGACGTAGGAAGCCTGCCATTTGATGGTC
DNA 2: GACCATCAAATGGCAGGCTG
RNA: UCAACGUGGGCAAAGAAUGUCCUACGUCCGAUACGGAUAAUCGC
As to B3, in the data set with FENMIT [4], the binding signal was 3 fold more cold RNA44 for half competition than labeled ssRNA needs.

B4: T1:U1:19DNA* equilibrating 5' DNA flap (structured_DNA)
DNA 1: GTCGACCTGCAGCCCAAGCTTGCGTTGCTG
DNA 2: CAGCAACGCAAGCTTGC
DNA 3: ATGTGGAAAATCTCTAGCAGGCTGCAGGTCGAC
As to B4, the binding result with FENMIT [2] (label: 5'-32P on 19DNA, equilibrating double flap: 19 nt 5' DNA flap, 1 nt 3' flap) was “no binding”; with FEN1 D181A, “binds”; with FEN1 (FEN1-1.His), “binds”.
